Results as given in patent publication US20220202901A1, “PEPTIDES IN COMBINATION WITH IMMUNE CHECKPOINT INHIBITORS FOR USE IN TREATMENT OF CANCER” (WNTRESEARCH AB, priority 2019, published 2022).

Key:
SKBR3 cells = assay: Functional immune response assay: PBMC cytotoxicity against SKBR3 cells; format: cell-based; details: SKBR3, relative to vehicle control
Description: (§1) Purpose: Examining the cytotoxic effect of Foxy-5 and an anti-PD-L1 antibody alone or in combination in a functional immune response assay with different breast cancer cell lines.
(§2) Peripheral blood mononuclear cells (PBMCs) were isolated from whole blood using Ficoll Paque based density centrifugation.
(§3) SKBR3 (low in PD L1, denoted PD L1+) or HCC1954 (high in PD L1, denoted PD L1+++) cells were stained with 0.1 mM CFSE.
(§4) Effector cells (EC), i.e. PMMCs and target cells (TC), i.e. SKBR3 or HCC1954 cells, respectively, were brought to a concentration of 2×10^5 cells/ml.
(§5) Cells were treated with and without Foxy5 (100 μM), the cells were also treated with and without pembrolizumab […].
(§6) Cells were plated at EC:TC ratios of 1:1 (first bar), 5:1 (second bar) and 10:1 (third bar) along with basal cell death controls and total cell death controls. Once plated, cells were spun down and incubated for 12 hours. After 12 hours cells were re suspended with 5 μg/ml 7AAD. Cells were then analysed on the Guava flow cytometer.
(§7) Based on staining patterns live/dead cell and immune/cancer cell differentiation can be determined and the direct cytotoxicity in terms of the cell death percentage was calculated.
Direct cytotoxicity elicited by PBMCs against the SKBR3 cell line in the presence of FOXY-5 and/or pembrolizumab relative to vehicle control. […]

HCC1954 cells = assay: Functional immune response assay: PBMC cytotoxicity against HCC1954 cells; format: cell-based
Description: as §1, §2, §3, §4, §5, §6, §7
Direct cytotoxicity elicited by PBMCs against the HCC1954 cell line in the presence of FOXY-5 and/or pembrolizumab relative to vehicle control. […]

Pembrolizumab
trastuzumab mediated ADCC (SKBR3 cells; EC:TC 10:1 and 5:1 ratios): decreased
direct PBMC cytotoxicity (SKBR3 cells; EC:TC 10:1 ratio): increased
direct PBMC cytotoxicity (HCC1954 cells; HCC1954 (PD L1 high), relative to vehicle control, EC:TC 5:1 and 10:1 ratios): increased
direct cytotoxicity (HCC1954 cells; HCC1954, pembrolizumab added to Foxy-5 vs. single agent, ratios 1:1 and 10:1): increased
